Laboratory results: patent publication US9605073B2, “Modulation of activity of neurotrophins” (H. Lundbeck, priority 2002, dated 2017)
Where two headings read alike, the source gives them in different places.

Assays:
[1] = target: T1, proNGF binding to Sortilin (Homo sapiens, UniProt Q99523); assay: Inhibition of proNGF binding to immobilized Sortilin (BIAcore); settings: prebound then coinjected, 51 fmol/mm^2 Sortilin
T1 construct: to 51 fmol/mm^2 purified Sortilin extracellular domain (lower panel); made in house; host or cells: Sortilin: stably transfected CHO cells; proNGF: E. coli
T1 sequence (Q99523 78-755 limits assumed): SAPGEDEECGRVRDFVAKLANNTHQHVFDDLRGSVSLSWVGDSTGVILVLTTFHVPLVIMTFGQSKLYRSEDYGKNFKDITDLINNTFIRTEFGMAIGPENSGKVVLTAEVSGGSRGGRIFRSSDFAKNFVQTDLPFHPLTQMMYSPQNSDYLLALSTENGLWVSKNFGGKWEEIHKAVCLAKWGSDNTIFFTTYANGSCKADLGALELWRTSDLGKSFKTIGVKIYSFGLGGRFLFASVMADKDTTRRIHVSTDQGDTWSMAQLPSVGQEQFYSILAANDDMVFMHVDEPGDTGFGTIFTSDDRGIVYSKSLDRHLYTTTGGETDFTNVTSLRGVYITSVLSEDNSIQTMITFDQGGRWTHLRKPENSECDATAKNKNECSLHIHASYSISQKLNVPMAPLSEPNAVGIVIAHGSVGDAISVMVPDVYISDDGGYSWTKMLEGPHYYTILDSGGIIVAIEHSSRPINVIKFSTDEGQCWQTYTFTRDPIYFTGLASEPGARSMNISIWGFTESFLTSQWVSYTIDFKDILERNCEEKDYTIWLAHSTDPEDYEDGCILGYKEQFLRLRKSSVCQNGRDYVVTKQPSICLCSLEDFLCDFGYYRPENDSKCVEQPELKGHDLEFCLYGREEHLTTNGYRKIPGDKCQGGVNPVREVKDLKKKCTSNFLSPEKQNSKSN
Description: FIG. 6: Inhibition of proNGF binding to immobilized Sortilin by RAP (receptor-associated protein), the propeptide of proNGF, and the Sortilin propeptide. The inhibitors were prebound to Sortilin followed by coinjection with 200 nM proNGF. […] Maximal proNGF binding is measured without preincubation with the respective inhibitors.

[2] = target: T2, Sortilin extracellular domain (Homo sapiens, UniProt Q99523); assay: Surface plasmon resonance (BIAcore) binding to immobilized purified Sortilin extracellular domain
T2 construct: purified Sortilin extracellular domain (lower panel); made in house; host or cells: CHO cells (stably transfected)
T2 sequence (Q99523 78-755 limits assumed): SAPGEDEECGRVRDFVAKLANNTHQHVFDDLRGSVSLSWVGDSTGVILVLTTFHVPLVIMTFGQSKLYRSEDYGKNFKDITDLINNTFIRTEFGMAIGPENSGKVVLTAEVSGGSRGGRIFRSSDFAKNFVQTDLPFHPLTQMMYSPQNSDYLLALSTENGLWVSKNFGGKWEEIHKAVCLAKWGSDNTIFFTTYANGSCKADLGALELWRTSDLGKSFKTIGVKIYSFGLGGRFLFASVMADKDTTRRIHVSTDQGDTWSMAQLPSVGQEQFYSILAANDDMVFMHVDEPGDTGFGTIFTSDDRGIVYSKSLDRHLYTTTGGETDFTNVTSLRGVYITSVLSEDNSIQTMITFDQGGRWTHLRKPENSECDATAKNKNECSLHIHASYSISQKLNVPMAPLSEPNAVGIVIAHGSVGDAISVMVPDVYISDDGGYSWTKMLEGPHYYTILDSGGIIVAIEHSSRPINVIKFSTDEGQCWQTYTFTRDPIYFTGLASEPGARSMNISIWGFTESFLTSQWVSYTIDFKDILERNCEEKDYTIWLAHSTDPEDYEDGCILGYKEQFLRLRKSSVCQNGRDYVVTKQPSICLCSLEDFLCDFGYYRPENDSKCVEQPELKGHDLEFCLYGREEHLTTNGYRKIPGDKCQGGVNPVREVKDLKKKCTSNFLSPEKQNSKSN
Description: (§1) FIG. 2: Characterization of NGF binding to p75, TrkA, and Sortilin as measured by surface plasmon resonance analysis (BIAcore). Binding of 50-500 nM NGF was measured to 91.5 fmol/mm^2 immobilized p75-IgG-Fc chimeric protein (upper panel), to 66 fmol/mm^2 immobilized TrkA-IgG-Fc (middle panel), and to 51 fmol/mm^2 purified Sortilin extracellular domain (lower panel).
(§2) Mature murine NGF was from Austral Biologicals (San Ramon, Calif.), recombinant human p75 neurotrophin receptor/Fc and human TrkA/Fc chimeras were from R&D systems (Oxon, UK). Human Sortilin was produced in stably transfected CHO-cells and purified as described elsewhere (Munck Petersen et al, EMBO J. (1999) 18:595-604).
as §1, with “3:” for “2:”, “proNGF” for “NGF”, “25-500” for “50-500”
as §1, with “4:” for “2:”, “of” for “of NGF”, “binding of the proNGF propeptide” for “binding”, “25-500” for “50-500”, “propeptide” for “NGF”
FIG. 7: Characterization of proBDNF and BDNF binding to purified Sortilin as measured by surface plasmon resonance (BIAcore). Rat proBDNF was produced in 293 cells as described in Lee, R., Kermani, P., Teng, K. K. & Hempstead, B. L. Regulation of cell survival by secreted proneurotrophins. Science 294, 1945-1948 (2001). and purified from the conditioned medium. Mature recombinant human BDNF was from Promega (#G1491) and the pro-domain of human BDNF fused to GST (glutathione S-transferase) was produced in E. coli and purified by glutathione-sepharose affinity chromatography. Binding of 5-500 nM proBDNF (upper panel), pro-domain of proBDNF (a GST-fusion protein, middle panel) or BDNF (lower panel) was measured to 94 fmol/mm2 immobilized purified Sortilin extracellular domain. The experiment was carried out essentially as described for FIGS. 2-4.
(§3) All the data provided in FIG. 2-7 are obtained by surface plasmon resonance measurements (BIAcore analysis)

[3] = target: TrkA/Fc; assay: Surface plasmon resonance (BIAcore) binding to immobilized TrkA-IgG-Fc; design: species or system human; settings: 66 fmol/mm^2 immobilized TrkA-IgG-Fc; for Kd: BIAcore
Description: as §1, §2
as §1, with “3:” for “2:”, “proNGF” for “NGF”, “25-500” for “50-500”
as §1, with “4:” for “2:”, “of” for “of NGF”, “binding of the proNGF propeptide” for “binding”, “25-500” for “50-500”, “propeptide” for “NGF”
as §3

[4] = target: T3, p75 neurotrophin receptor/Fc (Homo sapiens, UniProt P08138); assay: Surface plasmon resonance (BIAcore) binding to immobilized p75-IgG-Fc chimeric protein; settings: 91.5 fmol/mm^2 immobilized p75-IgG-Fc; for Kd: BIAcore
T3 construct: purchased R&D systems (Oxon, UK)
Description: as §1, §2
as §1, with “3:” for “2:”, “proNGF” for “NGF”, “25-500” for “50-500”
as §1, with “4:” for “2:”, “of” for “of NGF”, “binding of the proNGF propeptide” for “binding”, “25-500” for “50-500”, “propeptide” for “NGF”
as §3

[5] = 5-500 nM ligand, 94 fmol/mm2 immobilized purified Sortilin extracellular domain, read-out: Kd for ligand binding to Sortilin
[6] = 51 fmol/mm^2 purified Sortilin extracellular domain, BIAcore, read-out: Kd for binding to Sortilin

T3 sequence (P08138 with tags, fused parts or gaps limits assumed): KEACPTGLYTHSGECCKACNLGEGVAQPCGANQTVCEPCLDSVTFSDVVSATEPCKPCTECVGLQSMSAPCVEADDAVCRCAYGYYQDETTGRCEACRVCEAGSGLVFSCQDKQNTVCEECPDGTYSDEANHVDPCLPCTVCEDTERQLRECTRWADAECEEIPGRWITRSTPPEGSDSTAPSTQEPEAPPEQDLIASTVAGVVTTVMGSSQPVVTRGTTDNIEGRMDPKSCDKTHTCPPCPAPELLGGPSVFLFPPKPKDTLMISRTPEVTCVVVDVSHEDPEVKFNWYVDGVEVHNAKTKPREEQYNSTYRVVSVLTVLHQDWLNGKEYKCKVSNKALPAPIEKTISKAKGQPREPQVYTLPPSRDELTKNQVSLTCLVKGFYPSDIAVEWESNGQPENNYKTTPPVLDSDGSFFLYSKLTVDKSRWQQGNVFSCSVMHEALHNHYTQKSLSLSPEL

Sortilin propeptide: Propeptide of Sortilin; SEQ ID NO: 1 amino acid residue 34-77, binds the processed receptor (QDRLDAPPPPAAPLPRWSGPIGVSWGLRAAAAGGAFPRGGRWRR; listed as Homo sapiens)
inhibition of binding of 200 nM proNGF to immobilized Sortilin ([1]; inhibitor 5 μM): ~65%

mature BDNF: Mature recombinant human BDNF from Promega (#G1491)
Kd [2, 5]: ~40 nM | Kd ([2]; other preparations of mature BDNF, read-out: Kd for ligand binding to Sortilin): 10 nM

proNGF: Human recombinant proNGF produced and purified in E. coli
Kd [2, 6]: ~5 nM | Kd [3]: ~15 nM | Kd [4]: ~12 nM

B1: GST-pro-domain of proBDNF: Pro-domain of human BDNF fused to GST, produced in E. coli (protein)
chain: APMKEANIRGQGGLAYPGVRTHGTLESVNGPKAGSGLTSLADTFEHVIEELLDEDQKVRPNEENNKDADLYTSRVMLSSQVPLEPPLLFLLEEYKNYLDAANMSMRVRR
modifications: left off: a dimerising Fc or GST
notes: Pro-domain of human BDNF fused to GST, produced in E. coli
Kd [2, 5]: ~58 nM

B2: proBDNF: Rat proBDNF produced in 293 cells and purified from the conditioned medium (protein)
chain: APMKEANVHGQGNLAYPAVRTHGTLESVNGPRAGSRGLTTTSLADTFEHVIEELLDEDQKVRPNEENHKDADLYTSRVMLSSQVPLEPPLLFLLEEYKNYLDAANMSMRVRRHSDPARRGELSVCDSISEWVTAADKKTAVDMSGGTVTVLEKVPVSKGQLKQYFYETKCNPMGYTKEGCRGIDKRHWNSQCRTTQSYVRALTMDSKKRIGWRFIRIDTSCVCTLTIKRGR
Kd [2, 5]: ~3 nM

B3: RAP: Receptor-associated protein, cellular protein of about 300 amino acids, SEQ ID NO: 12 (protein, listed as Homo sapiens)
chain: MAPRRVRSFLRGLPALLLLLLFLGPWPAASHGGKYSREKNQPKPSPKRESGEEFRMEKLNQLWEKAQRLHLPPVRLAELHADLKIQERDELAWKKLKLDGLDEDGEKEARLIRNLNVILAKYGLDGKKDARQVTSNSLSGTQEDGLDDPRLEKLWHKAKTSGKFSGEELDKLWREFLHHKEKVHEYNVLLETLSRTEEIHENVISPSDLSDIKGSVLHSRHTELKEKLRSINQGLDRLRRVSHQGYSTEAEFEEPRVIDLWDLAQSANLTDKELEAFREELKHFEAKIEKHNHYQKQLEIAHEKLRHAESVGDGERVSRSREKHALLEGRTKELGYTVKKHLQDLSGRISRARHNEL
inhibition of binding of 200 nM proNGF to immobilized Sortilin ([1]; inhibitor 10 μM): ~65%

B4: NGF: Mature murine NGF from Austral Biologicals (protein)
chain: SSTHPVFHMGEFSVCDSVSVWVGDKTTATDIKGKEVTVLAEVNINNSVFRQYFFETKCRASNPVESGCRGIDSKHWNSYCTTTHTFVKALTTDEKQAAWRFIRIDTACVCVLSRKATRRG
Kd [2, 6]: ~87 nM | Kd [3]: ~2 nM | Kd [4]: ~1 nM

B5: proNGF propeptide: Human NGF-propeptide expressed in E. Coli; SEQ ID NO: 6 amino acid residue 19-121 (protein, listed as Homo sapiens)
chain: EPHSESNVPAGHTIPQVHWTKLQHSLDTALRRARSAPAAAIAARVAGQTRNITVDPRLFKKRRLRSPRVLFSTQPPREAADTQDLDFEVGGAAPFNRTHRSKR
Kd [2, 6]: ~87 nM | binding to TrkA ([3]; 25-500 nM propeptide): no detectable binding | binding to p75 ([4]; 25-500 nM propeptide): no detectable binding | inhibition of binding of 200 nM proNGF to immobilized Sortilin ([1]; inhibitor 5 μM): ~85%
